Reference: US20250353894A1 (UNIVERSITAT ULM, published 2025)

Key:
complement protein C3b [1] = target: T1, complement protein C3b (UniProt P01024 749-1663; P01024 23-667); assay: SPR, C3b coupled to chip, 1:1 steady state affinity model
T1 construct: also called factor C3b
Procedure: (§1) A surface plasmon resonance (SPR)-based assay (Schmidt et al. (2013), Journal of Immunology 190:5712-5721) was used to determine the affinity of the engineered complement inhibitors for the key complement protein C3b. 1940 response units […] of C3b were coupled to the chip. The samples were run at 25 μl/min in a concentration series with the highest and the lowest concentrations being assayed in duplicate to probe reproducibility. To get an estimation of the KD value for other proteins the plot of response (during steady state) against the assayed concentration was fitted to a 1:1 steady state affinity model.

complement protein C3b [2] = target: T1, complement protein C3b; assay: not named in the sentence (SPR on C3b by Table 1)
Procedure: as §1

T1 sequence (P01024 749-1663 limits assumed, chain 1 of 2): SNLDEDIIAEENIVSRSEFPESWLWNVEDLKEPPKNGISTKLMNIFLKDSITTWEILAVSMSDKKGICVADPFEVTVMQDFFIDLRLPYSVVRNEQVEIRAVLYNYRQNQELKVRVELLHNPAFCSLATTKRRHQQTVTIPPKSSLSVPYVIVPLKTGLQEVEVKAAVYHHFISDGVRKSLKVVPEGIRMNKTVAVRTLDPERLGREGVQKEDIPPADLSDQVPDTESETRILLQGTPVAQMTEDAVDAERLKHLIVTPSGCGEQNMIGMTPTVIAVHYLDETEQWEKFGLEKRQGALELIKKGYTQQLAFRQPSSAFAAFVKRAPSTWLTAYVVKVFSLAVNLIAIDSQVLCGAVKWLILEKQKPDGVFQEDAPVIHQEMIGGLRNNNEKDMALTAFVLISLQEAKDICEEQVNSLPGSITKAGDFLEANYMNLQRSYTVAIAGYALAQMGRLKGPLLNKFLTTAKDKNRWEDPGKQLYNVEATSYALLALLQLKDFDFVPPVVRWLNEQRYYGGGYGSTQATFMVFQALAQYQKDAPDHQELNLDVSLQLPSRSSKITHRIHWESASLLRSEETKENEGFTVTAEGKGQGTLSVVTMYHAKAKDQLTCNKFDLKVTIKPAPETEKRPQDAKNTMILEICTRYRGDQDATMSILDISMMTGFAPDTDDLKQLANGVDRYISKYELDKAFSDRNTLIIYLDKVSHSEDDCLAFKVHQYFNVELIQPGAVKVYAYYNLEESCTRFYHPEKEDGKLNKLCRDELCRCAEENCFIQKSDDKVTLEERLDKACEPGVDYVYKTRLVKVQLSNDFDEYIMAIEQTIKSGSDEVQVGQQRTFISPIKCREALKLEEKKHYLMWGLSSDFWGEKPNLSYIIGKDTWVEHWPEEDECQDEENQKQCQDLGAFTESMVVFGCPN
T1 sequence (P01024 23-667 limits assumed, chain 2 of 2): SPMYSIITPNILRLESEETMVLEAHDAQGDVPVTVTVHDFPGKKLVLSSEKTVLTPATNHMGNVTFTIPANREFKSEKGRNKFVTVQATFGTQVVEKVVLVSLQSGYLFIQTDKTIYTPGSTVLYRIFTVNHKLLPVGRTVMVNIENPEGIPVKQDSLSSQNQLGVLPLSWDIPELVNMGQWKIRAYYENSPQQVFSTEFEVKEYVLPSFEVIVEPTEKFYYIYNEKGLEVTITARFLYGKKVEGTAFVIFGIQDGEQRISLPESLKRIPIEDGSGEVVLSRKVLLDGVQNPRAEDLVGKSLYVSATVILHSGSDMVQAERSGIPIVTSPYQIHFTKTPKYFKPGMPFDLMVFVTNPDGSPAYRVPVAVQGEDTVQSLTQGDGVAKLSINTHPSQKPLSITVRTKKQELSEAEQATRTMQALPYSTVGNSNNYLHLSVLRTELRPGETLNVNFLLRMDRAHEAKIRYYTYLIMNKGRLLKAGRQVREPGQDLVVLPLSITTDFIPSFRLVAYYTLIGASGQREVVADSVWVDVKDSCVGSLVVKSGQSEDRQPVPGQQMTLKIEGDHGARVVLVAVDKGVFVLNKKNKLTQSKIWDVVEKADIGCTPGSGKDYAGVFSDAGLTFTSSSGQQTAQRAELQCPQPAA

B1: CR1(15-17) (receptor)
chain: not shown
notes: Produced in Pichia pastoris; also called CCPs 15 to 17 of human CR1
- Kd (complement protein C3b [1]): 954 nM

B2: DAF(1-4)FH(19-20)CR1(15-17) (other)
chain: DCGLPPDVPNAQPALEGRTSFPEDTVITYKCEESFVKIPGEKDSVICLKGSQWSDIEEFCQRSCEVPTRLNSASLKQPYITQNYFPVGTVVEYECRPGYRREPSLSPKLTCLQNLKWSTAVEFCKKKSCPNPGEIRNGQIDVPGGILFGATISFSCNTGYKLFGSTSSFCLISGSSVQWSDPLPECREIYCPAPPQIDNGIIQGERDHYGYRQSVTYACNKGFTMIGEHSIYCTVNNDEGEWSGPPPECRGGGGGGGGGGGGGGGKCGPPPPIDNGDITSFPLSVYAPASSVEYQCQNLYQLEGNKRITCRNGQWSEPPKCLHPCVISREIMENYNIALRWTAKQKLYSRTGESVEFVCKRGYRLSSRSHTLRTTCWDGKLEYPTCAGGGGGGGHCQAPDHFLFAKLKTQTQASDFPIGTSLKYECRPEYYGRPFSITCLDNLVWSSPKDVCKRKSCKTPPDPVNGMVHVITDIQVGSRIQYSCTTGHRLIGHSSAECILSGNTAHWSTKPPICQRIPCGLPPTIANGDFISTNRENFHYGSVVTYRCNLGSRGRKVFELVGEPSIYCTSNDDQVGIWSGPAPQCII
notes: Multi-domain fusion polypeptide produced in Pichia pastoris; also called triple I; triple-I
- Kd (complement protein C3b [2]): 20 nM
- Kd (complement protein C3b [1]): 22.8 nM

B3: CR1(1-3)FH(19-20)CR1(15-17) (other)
chain: QCNAPEWLPFARPTQLTDEFEFPIGTYLNYECRPGYSGRPFSIICLKNSVWTGAKDRCRRKSCRNPPDPVNGMVHVIKGIQFGSQIKYSCTKGYRLIGSSSATCIISGDTVIWDQETPICDRIPCGLPPTITNGDFISTNRENFHYGSVVTYRCNPGSGGRKVFELVGEPSIYCTSNDDQVGIWSGPAPQCIIGGGGGGGGGGGGGGKCGPPPPIDNGDITSFPLSVYAPASSVEYQCQNLYQLEGNKRITCRNGQWSEPPKCLHPCVISREIMENYNIALRWTAKQKLYSRTGESVEFVCKRGYRLSSRSHTLRTTCWDGKLEYPTCAGGGGGGGHCQAPDHFLFAKLKTQTQASDFPIGTSLKYECRPEYYGRPFSITCLDNLVWSSPKDVCKRKSCKTPPDPVNGMVHVITDIQVGSRIQYSCTTGHRLIGHSSAECILSGNTAHWSTKPPICQRIPCGLPPTIANGDFISTNRENFHYGSVVTYRCNLGSRGRKVFELVGEPSIYCTSNDDQVGIWSGPAPQCII
notes: Multi-domain fusion polypeptide produced in Pichia pastoris
- Kd (complement protein C3b [2]): 40 nM
- Kd (complement protein C3b [1]): 40.6 nM

B4: DAF(1-4) (other)
chain: DCGLPPDVPNAQPALEGRTSFPEDTVITYKCEESFVKIPGEKDSVICLKGSQWSDIEEFCQRSCEVPTRLNSASLKQPYITQNYFPVGTVVEYECRPGYRREPSLSPKLTCLQNLKWSTAVEFCKKKSCPNPGEIRNGQIDVPGGILFGATISFSCNTGYKLFGSTSSFCLISGSSVQWSDPLPECREIYCPAPPQIDNGIIQGERDHYGYRQSVTYACNKGFTMIGEHSIYCTVNNDEGEWSGPPPECR
notes: Produced in Pichia pastoris; also called soluble DAF; sDAF
- Kd (complement protein C3b [1]): 11500 nM

B5: FH(19-20) (other)
chain: KCGPPPPIDNGDITSFPLSVYAPASSVEYQCQNLYQLEGNKRITCRNGQWSEPPKCLHPCVISREIMENYNIALRWTAKQKLYSRTGESVEFVCKRGYRLSSRSHTLRTTCWDGKLEYPTCA
notes: also called CCPs 19 and 20 of Factor H
- Kd (complement protein C3b [1]): 4670 nM

B6: DAF(1-4)FH(19-20) short linker (other)
chain: DCGLPPDVPNAQPALEGRTSFPEDTVITYKCEESFVKIPGEKDSVICLKGSQWSDIEEFCNRSCEVPTRLNSASLKQPYITQNYFPVGTVVEYECRPGYRREPSLSPKLTCLQNLKWSTAVEFCKKKSCPNPGEIRNGQIDVPGGILFGATISFSCNTGYKLFGSTSSFCLISGSSVQWSDPLPECREIYCPAPPQIDNGIIQGERDHYGYRQSVTYACNKGFTMIGEHSIYCTVNNDEGEWSGPPPECRGPGGGKCGPPPPIDNGDITSFPLSVYAPASSVEYQCQNLYQLEGNKRITCRNGQWSEPPKCLHPCVISREIMENYNIALRWTAKQKLYSRTGESVEFVCKRGYRLSSRSHTLRTTCWDGKLEYPTCAKR
notes: Fusion protein; the two domains are joined directly; also called DAF(1-4)FH(19-20)-SL
- Kd (complement protein C3b [1]): 125 nM

B7: DAF(1-4)FH(19-20) long linker (other)
chain: DCGLPPDVPNAQPALEGRTSFPEDTVITYKCEESFVKIPGEKDSVICLKGSQWSDIEEFCQRSCEVPTRLNSASLKQPYITQNYFPVGTVVEYECRPGYRREPSLSPKLTCLQNLKWSTAVEFCKKKSCPNPGEIRNGQIDVPGGILFGATISFSCNTGYKLFGSTSSFCLISGSSVQWSDPLPECREIYCPAPPQIDNGIIQGERDHYGYRQSVTYACNKGFTMIGEHSIYCTVNNDEGEWSGPPPECRGGGGGGGGGGGGGGGKCGPPPPIDNGDITSFPLSVYAPASSVEYQCQNLYQLEGNKRITCRNGQWSEPPKCLHPCVISREIMENYNIALRWTAKQKLYSRTGESVEFVCKRGYRLSSRSHTLRTTCWDGKLEYPTCA
notes: Fusion protein with an oligo-glycine linker; also called DAF(1-4)FH(19-20)-LL
- Kd (complement protein C3b [1]): 175 nM
